Experimental data taken from patent publication US20260185137.

B1: R2-WT, tandem RING dimer construct of rhesus monkey TRIM5alpha (protein)
chain: ASGILLNVKEEVTCPICLELLTEPLSLHCGHSFCQACITANHKKSMLYKEGERSCPVCRISYQPENIQPNRHVANIVEKLRGSASGILLNVKEEVTCPICLELLTEPLSLHCGHSFCQACITANHKKSMLYKEGERSCPVCRISYQPENIQPNRHVANIVEKLREVKLSPEEGQ
B2: R1-I77R, RING domain construct of rhesus monkey TRIM5alpha with the I77R mutation (protein)
chain: ASGILLNVKEEVTCPICLELLTEPLSLHCGHSFCQACITANHKKSMLYKEGERSCPVCRISYQPENIQPNRHVANRVEKLREVKLSPEE
B3: R3-I77R, trimeric RING-foldon construct of rhesus monkey TRIM5alpha with the I77R mutation (protein)
chain: ASGILLNVKEEVTCPICLELLTEPLSLHCGHSFCQACITANHKKSMLYKEGERSCPVCRISYQPENIQPNRHVANRVEKLREVKLSPEEGQKVDGYIPEAPRDGQAYVRKDGEWVFLSTFLHHHHHH
B4: R3-WT, trimeric RING construct of rhesus monkey TRIM5alpha fused to T4 fibritin foldon (protein)
chain: ASGILLNVKEEVTCPICLELLTEPLSLHCGHSFCQACITANHKKSMLYKEGERSCPVCRISYQPENIQPNRHVANIVEKLREVKLSPEEGQKVDGYIPEAPRDGQAYVRKDGEWVFLSTFLHHHHHH

Key:
[1] = target: AF594-UBE2N~AF488-Ub/UBE2V2 conjugate, P61088
Sequence of AF594-UBE2N~AF488-Ub/UBE2V2 conjugate, P61088 (P61088 whole entry, looked up): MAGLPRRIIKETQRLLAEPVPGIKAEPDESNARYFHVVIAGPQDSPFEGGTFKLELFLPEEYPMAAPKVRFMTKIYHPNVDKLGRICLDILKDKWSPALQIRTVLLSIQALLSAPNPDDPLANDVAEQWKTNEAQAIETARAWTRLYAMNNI

[2] = target: AF594-UBE2W~AF488-Ub conjugate, Q96B02
Sequence of AF594-UBE2W~AF488-Ub conjugate, Q96B02 (Q96B02 whole entry, looked up): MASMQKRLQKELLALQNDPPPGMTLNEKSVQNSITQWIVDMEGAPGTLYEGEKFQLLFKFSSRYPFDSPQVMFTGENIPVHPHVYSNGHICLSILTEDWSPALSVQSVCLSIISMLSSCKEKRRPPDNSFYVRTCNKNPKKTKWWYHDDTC

Row | Protein | E3 activity (kcat/Km) for ubiquitin discharge, FRET ubiquitin discharge assay [1] | E3 activity (initial slope of Michaelis-Menten curve of FRET decay amplitude), FRET ubiquitin discharge assay [2] | E3 activity per RING monomer for ubiquitin discharge, FRET ubiquitin discharge assay [1]
1 | B1 | The E3 activity of the R2-WT is also significantly higher than that of the R1-WT |  | 
2 | B2 | catalysis of ubiquitin discharge from the UBE2N/V2-Ub conjugate is virtually abolished by the I77R mutation in the R1-177R and R3-177R constructs | the R3-177R and R1-177R constructs retained less than 10% of the R3-WT and R1-WT E3 activity, respectively | 
3 | B3 | catalysis of ubiquitin discharge from the UBE2N/V2-Ub conjugate is virtually abolished by the I77R mutation in the R1-177R and R3-177R constructs | the R3-177R and R1-177R constructs retained less than 10% of the R3-WT and R1-WT E3 activity, respectively | 
4 | B4 |  | significantly higher activity of the R3-WT construct in comparison to R2-WT | the E3 activity per RING monomer is lower in the R3-WT construct than in R2-WT
